# Assay results published in PMC9352680, “A comprehensive thermodynamic model for RNA binding by the Saccharomyces cerevisiae Pumilio protein PUF4”.
# T1: PUF4 RNA-binding domain (Saccharomyces cerevisiae, UniProt P25339 537-888)
# T1 sequence: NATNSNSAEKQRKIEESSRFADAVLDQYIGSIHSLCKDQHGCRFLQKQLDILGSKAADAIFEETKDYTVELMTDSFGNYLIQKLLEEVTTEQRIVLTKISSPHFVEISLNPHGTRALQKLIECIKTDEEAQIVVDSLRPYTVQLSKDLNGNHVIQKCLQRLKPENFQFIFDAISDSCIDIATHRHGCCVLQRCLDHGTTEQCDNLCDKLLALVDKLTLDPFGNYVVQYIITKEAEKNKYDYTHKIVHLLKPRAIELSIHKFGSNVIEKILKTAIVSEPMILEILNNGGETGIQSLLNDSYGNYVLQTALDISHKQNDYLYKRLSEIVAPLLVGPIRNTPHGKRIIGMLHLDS
# B1: Ia_S2_P5E.1_K5.1_C5.1_H5.1_A5.1_[T5C]_F5.1_T5.1 (ssRNA)
# RNA: UUUGAUUAAUAUGAUAUCGUUCUUUCUUGUACUAUUAUUCUUUCUCGAUAUCAUAUUAAUCUUU
# Target: T1, PUF4 RNA-binding domain
# Test: Mg; RNA-MaP; 20 mM Na-HEPES pH 7.4, 30 mM KOAc, 0.75 mM MgCl2, 0.1% Tween-20, 5% glycerol, 0.1 mg/mL BSA, 2 mM DTT; 25 C; 0.0125-409.6 nM protein
# Settings: tags: N-His6-TEV cleaved; C-SNAP kept, Cy3B-labelled; label: tethered on chip by stalled RNA polymerase
row,Binder,Kd [nM]
1,ACAAACUGCAGAUAACAAAC (ssRNA) [Ib_S3_P3E.1_K3.1_C3.1_H3.1_[T3C]_A3.1_[T5G]_F3.1_T3.1],> 2300
2,ACAAACUGGAUUUAACAAAC (ssRNA) [Ib_S3_P3E.1_K3.1_C3.1_H3.1_[T3G]_A3.1_[A6T]_F3.1_T3.1],> 2300
3,ACAAACUGAAUCUAACAAAC (ssRNA) [Ib_S3_P3E.1_K3.1_C3.1_H3.1_[T3A]_A3.1_[A6C]_F3.1_T3.1],> 2300
4,ACAAACUGUCUUUAACAAAC (ssRNA) [Ib_S3_P3E.1_K3.1_C3.1_H3.1_[A4C]_A3.1_[A6T]_F3.1_T3.1],> 2300
5,ACAAACGGUAUAUGAACAAAC (ssRNA) [Ib_S3_P4E.1_K4.1_C4.1_H4.1_[T1G]_A4.1_F4.1_[T8G]_T4.1],> 2300
6,ACAAACAGUAUAUCAACAAAC (ssRNA) [Ib_S3_P4E.1_K4.1_C4.1_H4.1_[T1A]_A4.1_F4.1_[T8C]_T4.1],> 2300
7,B1,1.48
8,ACAAACGGUAUAUAAACAAAC (ssRNA) [Ib_S3_P4E.1_K4.1_C4.1_H4.1_[T1G]_A4.1_F4.1_[T8A]_T4.1],1980
9,ACAAACAGUAUAUAAACAAAC (ssRNA) [Ib_S3_P4E.1_K4.1_C4.1_H4.1_[T1A]_A4.1_F4.1_[T8A]_T4.1],> 2300
10,ACAAACUCUAUAUCAACAAAC (ssRNA) [Ib_S3_P4E.1_K4.1_C4.1_H4.1_[G2C]_A4.1_F4.1_[T8C]_T4.1],> 2300
11,ACAAACCGUAUAUUCACAAAC (ssRNA) [Ib_S3_P4E.1_K4.1_C4.1_H4.1_[T1C]_A4.1_F4.1_[A9C]_T4.1],> 2300
12,ACAAACUCUAUAUUCACAAAC (ssRNA) [Ib_S3_P4E.1_K4.1_C4.1_H4.1_[G2C]_A4.1_F4.1_[A9C]_T4.1],> 2300
13,ACAAACUUUAUAUUCACAAAC (ssRNA) [Ib_S3_P4E.1_K4.1_C4.1_H4.1_[G2T]_A4.1_F4.1_[A9C]_T4.1],> 2300
14,ACAAACUAUAUAUUCACAAAC (ssRNA) [Ib_S3_P4E.1_K4.1_C4.1_H4.1_[G2A]_A4.1_F4.1_[A9C]_T4.1],1480
15,ACAAACUGCAUAUUCACAAAC (ssRNA) [Ib_S3_P4E.1_K4.1_C4.1_H4.1_[T3C]_A4.1_F4.1_[A9C]_T4.1],> 2300
16,ACAAACUGCAUAUUUACAAAC (ssRNA) [Ib_S3_P4E.1_K4.1_C4.1_H4.1_[T3C]_A4.1_F4.1_[A9T]_T4.1],839
17,ACAAACACUAUAUUAACAAAC (ssRNA) [Ib_S3_P4E.1_K4.1_C4.1_H4.1_[T1A]_[G2C]_A4.1_F4.1_T4.1],> 2300
